Data: the supplement of paper PMC12636428

test system: Saccharomyces cerevisiae; experiment: transcriptional activation domain activity (GFP:mCherry ratio, weighted mean of sorted bins, harmonized to initial dataset scale) (arbitrary fluorescence ratio units); higher = stronger transcriptional activation; settings: beta-estradiol 1 µM; induction time 4 h
Method: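 53-aa protein tiles (fungal proteins plus yeast TF control tiles) fused C-terminally to a DBD-estrogen-binding domain-mCherry synthetic TF, integrated in S. cerevisiae (URA3 locus) with a GFP reporter. Cells were induced with 1 uM beta-estradiol for 4 h at 30 C, FACS-sorted into 8 bins by GFP:mCherry ratio and barcodes sequenced. Activity is the read-weighted mean bin fluorescence (GFP:mCherry), averaged over barcodes (median 12); tiles under 50 reads were discarded. New active-learning values were harmonized by linear fit onto the scale of the initial (Hummel et al.) dataset. The assay saturates at low and high signal.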

Sequence	transcriptional activation domain activity
LSSFALLSSGYFLDVFFLFFCFFVFFVFPFLFLLSTVNTHAIFFFFLSFSFVI	60300
MAFFYLCYIIISLVLYLFFLCSSFCCFMIHEFSLLSSLSQFSQRVYIGWSFFR	58300
MHIVVTLCYFMTYLKPRRKDIYQRVQRWLPKIWTKFWQEIKRNDSFSYVFVDK	49500
DAPPQKGDRKAEVQDGENGDEVGQDPKGKDKGGRGRGRGGRGRGGAARGGATA	36600
SEAVDFEVPDDFVVSWTGDLLPHTIIYCDFPPPMSVALFEPQPSDMDFDWFWI	71600
RSTMKIVEEEDQRRRAIRKTCCALCGREEGVSLRCKRCKTVLYCSPSVRGCQL	33200
MYECACFPFPFFLSFFFFLSSFSYGCPFCFVGYRFPLLPLLLSVFLFLGLCLM	33800
MVINGLPWLVALSIPFTFLASLTHSSWHPLLLRSHSTWRLYWWLVLVLRMHMT	41500
GFVLPLFFNSLCPMIPIGFSFVFHFFSHFSFLPIVCFPFPFHLFDTLGSFFFR	33100
MIKFSLLIFLIVFILDYLIFFCFFFFFLFFYFFIQFTLFMVCGGDLIYGFING	43200
ASEAPKEEPKTESAPEPKQESAPESKKEAPAPAASKPEPPKQVEKKKESSSAP	34300
MYVWYSLSFLFPPTSPSLFLFLFYLFIYSLFYFFFYFSPYFFSFFLSSYTLHY	63000
MNYLELSLVILTCLWDILLVVTFCSYRRIFRRVNMVNIMTISLLKHLSVFCLF	52300
LGDQPHIPIPVAFRNIWSFLRVCTLEGFDAKEILPILFALSPGAQLRFIRCRS	70800
RQAAMPKRKSPEEEDEEDEEEAPAKPAAKKAKTATAANGEKKSAGRGRPKKAA	31700
PYIALIVLDVILIKLGSGRHIEYIQYVLTRATVKETEVLDFYAHIIYTTTLLI	28800
CPQPLIYCKPCKILQTQYDRLHINHMTFNMISHHLYRGLLPLLVVVCLLGKIV	62100
MILLQCIPPFFLFSFLYSFVFPSPLPTIYDLSFSVSFFLFLFPWLVEIQLCCC	52800
GAYYLVSGLNGFELYEFDDNYHCGCCRDVHYRLFWFLIETISVLHGRWVFLQV	28800
FDHPLIPNRRKTYMRFEGCNPDMGCTIILRGADIITLRRLKKVMRFVTFMVRN	70100
LSRVTGKEHDQMCRIVLGILVDLRLPDNQNPTRLIWAVRALLDFLYLAQYPIH	67200
EHRVMSAKIKAGELIDNGRFVDEKSFEKPPIHFHLICDHNIRVLLIIIHHSLY	21300
GRMIRMWKRWSVMAHGMNRLKHYANYLPRLIVLLNKTLPQDVADIIKFNMLVC	39100
AFSFALFDFDTLAGTFPFDSLGYSDDISTLTDPLIPMNYDPTPFSWTPRTTLA	54300

Sequence	transcriptional activation domain activity
YFVYLLQLIYYICFSIGVSFSMKVFDYVTFMDSITGHAGHMLCVCIFFLIGAV	75800
LCAPIEVFRNICLPFVRLLHPLFFLSLLVFVEIIFPLFIPLTLLHCFLVLFGV	55100
MHDAISFVLHLRLFAHVVGTSLSDGGPVFLALCMLPPLMRHFVSMSSNLWTTA	70700
MYHSIQLGPVVSLLSLALSFIFFFLSPFFFFPFLALSFAPLFVILIFFFISTC	29000
MLCIRYLIYFLLLGESLVGSFLPPFTIYISLFFSSSIPCSTWVSFPLLHHTYL	35900
MGMEYIFCLSLSSWGYIFFSFHGFPLFLIFIFSFLARFFLLFFHLFFSFSFFA	65400
GCRKDQRARRRRSPALANRPEMKGVCLKTGITKPKKPNSGERKTARIRLSSGR	38900
PYILPLLILSKRLHSIFMLRCFNDCFAILFLFLAILCFQRRHWTVGSLIYSWG	48300
MHNSRSSFLVSCFFIYFFSLLVHCEGVLILTPIPFQNHLVSILECFLFYLFLF	51600
LVVVLAVTKVMLLVLLIISYQILKQLLGIYFKCIHFLIYFFMLPYYGTLLSIL	47500
EASSDGEGAASASDASGDRELVKAKAKKKKKAAGEEGDKPKKKKKSSPKKAKE	27100
HVNVPTQFLSMVCPMAESIVEMVNGRMNLVGTTNYWRMIILLRPYVFQCGAAI	44200
CVWVYTEIFPEFVWLLIFKLLKSMPEMTRRTGIVVIRSLVSCGIQIGDTFTHK	50600
EDGDVDMGEADDKPAEPEAEIKTEEVETAAAPEPETEPKSTPAVPAAAAAAAA	24500
IFVSLLDYLATWISDDQIKCWPLNFVSRMFFYMLYFVFYRTILLFLTIEEIAV	55200
TMYYDAIWLMWKDHSLQGWEVAHNTFDQLHVVLDDHLLYPVLNLLMIVIILPD	51200
MGPPFFDGFSDGSSDLGSLFLPNGDSANWDLSWSAETFWQLENEYTSLPSFFD	144000
KWLGECLNAAIAVFLYIYFLLHVGLLHLSHFFFFFFDLFSPVYTLSLQMVLYL	53800
MVTIWDFFLGGWGWAFYIICLFFFLSFYFLSFFFFSLLSSFFFFGYSPSAVWV	29600
KKSVLQLLAWLMHYKLYPTRNYKAICNCLPKLFENPLWAEFCSKMADTMVKYN	46300
YETRPHAHVQEAVLTNRLTSAALYNPGRIAVLPLVCVWRDERTVVVFVHLVLT	21400
PSRTSCATPSPTSSTSAVPSARSSTGPRSRSRSRTASTSSTRASAAPSCSCAR	10500
MHCVLALSLGLLSRVIVFYGCSFRGKLHFMMFWEALYLLLIFMRMLWLLFFIT	51000
FFFFLLLLLLFFFLLRFLLLVYYYPNHPTHTYQPISFQFQPTHQIHHNALQHH	32200

Sequence	transcriptional activation domain activity
LVLRSPAILTLEEEEDVAANLSQYSVQCSEVDKFLLTYVILKLKLVKGKCLIF	72300
MIYACGLICFYFFFFFLYFFPFCISFHIFLFSFLYPSCSFSFLQHCQVGTGVC	48900
YRHLKPIMISSPVFCYLQLLGLIMCYLSLLVKVGKPSPSICISRQFLLPMGFV	43200
EDEASQPAKPRARPAPSRAQNRSKEKSSKTARKRKDKSPPASQQEPEQDEGSE	18600
MRPLSWRLWRTGDSNRELLSHFLFYLGLFFFFREWLFLVLFFLFLLLLLPGVR	26600
IGMQLLLTWAYIRLNPFAVYSSPYIILFSFWSLGYLVLVYTLTLPSSLPFYHS	46800
RGTIRPGFLIYFFILFLWVFQIHCIMQIIVNRIALLHVSPTIVRRLKWGIFSI	66300
EFNDIERSVYEIVRKRFIARINSFAAAGQLEKSYTNIFVMLLRLRQLTGHILT	48200
MSGTNNSAAPPSYFDKAKDAMHSVVGNLTGHDDKETSSKPYVPTVSSACTAVV	61800
SAPAPVRVVSLTKEEPVPEVKEEVKEEVKPAPAAAAPKPKPAAAKKETPAAVK	13400
AAKPKDRIKYWNIVPGDRVRITGDKEGKLLEVAKINKLSNRVYLKGATTKAGS	44400
MNRIKSARGRDDGSDGEVRILVVSGPRVREVEWSGVQPAWMAVEVVVVMECPR	36800
MGLWARFICFVIVCFQITFLYCLLSFSPSFLDLQKTQPLFFTFFFFLLLSLFP	60400
IFNPLNWVFVQSSKVFPVDYILALLLVFDFFISSVVGIAFIGIRFLWVTLFRL	71500
MDSLFFFFFLLFFFSSCFGFGCSVGLFLFFSVVCNLYFCLLRSYMYLLALLFT	51500
RQLAWECLHHCSVQLRPSGATIRDSLRAAAHYVKHLAIQHKLVLVALQPFFAY	43100
RLGEEKRSKSTEEAPREESEEAESTKKASGKSESAGEEKTKEEGEEGEGKKEG	30800
GEGEEDDVNGNKKRASDRSSSPKSKRSRKDEEEKEKEKKPTVKKPRQTKPKTT	31300
KQYCVRPNSGRIEPGKEVEVQVILQAMKQEPPPDTKCRDKFLVQAVAIAADKE	29700
NSVPGSPETPTSSSLDGSRETGYLRVRVVSAKDLAARMRSRTATCSASAGSPL	42100
LIIDVFPPPPPLLSLFFFLSLSLFFSSSFLLFSFASLLSVQLWRGLIVLFVFL	62900
ENAGNENAVDVENAGNENTAPEAKGKKNKGNAAANENAAGNAQAGEAGQVAAN	47200
MLLMPRLCPVYLIHFCMIYALHLVAPHLSFPLISSGFLIIFTLHYTSTLLTCL	49400
